The target in one assay is T1, murine SND1, wild type (mouse, UniProt Q78PY7 1-910).
T1 construct: Endogenous protein of murine PyMT mammary tumor cells; also called SND1 (in PyMT tumor cells); WT shRNA-resistant murine SND1
T1 sequence (looked up): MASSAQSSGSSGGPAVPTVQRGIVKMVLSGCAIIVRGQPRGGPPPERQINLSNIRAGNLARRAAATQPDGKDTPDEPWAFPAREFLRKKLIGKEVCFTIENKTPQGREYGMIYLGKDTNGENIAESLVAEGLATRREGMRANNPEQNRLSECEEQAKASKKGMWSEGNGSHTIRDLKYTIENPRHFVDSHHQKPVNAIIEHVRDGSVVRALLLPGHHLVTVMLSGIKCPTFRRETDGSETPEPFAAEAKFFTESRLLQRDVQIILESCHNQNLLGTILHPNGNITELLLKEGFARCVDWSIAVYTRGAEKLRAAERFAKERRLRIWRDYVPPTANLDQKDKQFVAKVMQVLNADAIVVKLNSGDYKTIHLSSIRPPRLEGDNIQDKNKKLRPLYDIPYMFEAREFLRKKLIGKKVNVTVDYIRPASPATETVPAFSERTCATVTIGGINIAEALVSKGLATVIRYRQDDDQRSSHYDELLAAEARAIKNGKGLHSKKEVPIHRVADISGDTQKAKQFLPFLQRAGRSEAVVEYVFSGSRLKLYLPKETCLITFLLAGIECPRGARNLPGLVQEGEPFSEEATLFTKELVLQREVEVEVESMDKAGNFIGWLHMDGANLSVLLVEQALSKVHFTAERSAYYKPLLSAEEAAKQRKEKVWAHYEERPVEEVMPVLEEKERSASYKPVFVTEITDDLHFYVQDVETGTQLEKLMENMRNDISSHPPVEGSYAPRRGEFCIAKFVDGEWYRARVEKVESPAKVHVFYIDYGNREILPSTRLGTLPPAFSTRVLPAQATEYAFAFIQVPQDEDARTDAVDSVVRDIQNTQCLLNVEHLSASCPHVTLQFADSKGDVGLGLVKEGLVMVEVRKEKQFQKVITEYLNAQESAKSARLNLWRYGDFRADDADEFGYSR
Put plainly: anti-MTDH co-IP from PyMT;Mtdh-/- MECs reconstituted with murine MTDH, western blot. The procedure:
(FIG. 8A, FIG. 8E) Lysates from PyMT;Mtdh−/− MECs reconstituted with vector control, WT or mutant murine MTDH were immunoprecipitated with anti-MTDH antibody and immunoblotted for indicated proteins. (FIG. 8B, FIG. 8F) Mammosphere assays were performed with PyMT;Mtdh−/− pMECs reconstituted with indicated Mtdh constructs. (FIG. 8C, FIG. 8D, FIG. 8G, FIG. 8H) In vivo tumor formation (FIG. 8C, FIG. 8G for tumor incidence; FIG. 8D, FIG. 8H for tumor volumes) were performed at limiting numbers using PyMT;Mtdh−/− pMECs reconstituted with indicated WT or mutant MTDH. *Note: mouse W391D MTDH corresponds to human W394D MTDH; and mouse W398D MTDH corresponds to human W401D MTDH. Statistics: (FIG. 8B, […]) Student's t-test. (FIG. 8C, FIG. 8G) Limiting dilution analysis. (FIG. 8D, FIG. 8H) Mann-Whitney test. Data represent mean±SEM. ***p<0.001, **p<0.01, *p<0.05.
Immunoprecipitation and western blot For immunoprecipitation (IP) experiments, cultured cells were washed in cold PBS and lysed in lysis buffer (20 mM Tris pH 7.4, 0.15 M NaCl, 1 mM EDTA, 1 mM EGTA, 1% Tx-100, 0.0025 M Na2P2O7, 1 mM α-glycerolphosphate, 1 mM Na3VO4, and 1 mM NaF) with an EDTA-free protease inhibitor mixture (Roche Applied Science) and PMSF. Cell lysates were then incubated on ice for 10 min, centrifuged, and precleared by incubating with protein A/G beads (Santa Cruz Biotechnology) for 1 h at 4° C. […]
For orientation: Immunoblotting shows a protein as a band on a membrane.

Assay [1] deals with T2, HA-SND1, full-length human, wild type (human, UniProt Q7KZF4 1-910).
T2 construct: Full-length, HA-tagged; Expressed in HEK293T cells, tested in lysate; also called HA-tagged SND1; WT HA-SND1
T2 sequence: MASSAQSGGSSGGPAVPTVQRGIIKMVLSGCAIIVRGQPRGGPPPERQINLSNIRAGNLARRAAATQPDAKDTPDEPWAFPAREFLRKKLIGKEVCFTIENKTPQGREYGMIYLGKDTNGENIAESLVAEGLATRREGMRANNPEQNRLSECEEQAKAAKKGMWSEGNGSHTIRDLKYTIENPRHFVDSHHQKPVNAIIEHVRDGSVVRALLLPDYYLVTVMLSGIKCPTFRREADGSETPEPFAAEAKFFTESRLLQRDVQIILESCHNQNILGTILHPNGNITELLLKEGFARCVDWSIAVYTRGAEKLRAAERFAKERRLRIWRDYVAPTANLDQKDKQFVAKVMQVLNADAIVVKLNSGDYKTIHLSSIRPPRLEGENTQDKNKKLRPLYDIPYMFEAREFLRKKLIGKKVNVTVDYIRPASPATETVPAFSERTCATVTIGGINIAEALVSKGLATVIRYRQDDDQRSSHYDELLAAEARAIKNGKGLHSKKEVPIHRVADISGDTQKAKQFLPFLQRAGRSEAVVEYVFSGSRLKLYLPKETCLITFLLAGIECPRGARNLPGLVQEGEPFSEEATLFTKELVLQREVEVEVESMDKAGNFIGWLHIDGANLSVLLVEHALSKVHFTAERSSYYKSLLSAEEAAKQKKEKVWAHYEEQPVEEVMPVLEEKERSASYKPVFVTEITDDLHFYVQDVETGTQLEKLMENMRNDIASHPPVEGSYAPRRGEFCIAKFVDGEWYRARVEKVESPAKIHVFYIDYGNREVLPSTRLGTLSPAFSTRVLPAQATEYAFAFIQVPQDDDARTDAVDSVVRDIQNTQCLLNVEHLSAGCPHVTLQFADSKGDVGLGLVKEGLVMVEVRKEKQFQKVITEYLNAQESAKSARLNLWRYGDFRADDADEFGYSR
In words: competition in co-IP, 50 uM peptide; competitor MTDH. As to the method: 293 T cells were co-transfected with HA-SND1 and MYC-MTDH. After 48 hours, the cells were collected and subject to immunoprecipitation assay. Cell lysate was incubated with anti-HA antibody or IgG overnight followed by a two hour incubation with Protein A/G beads to pull down HA-SND1 protein. The beads were washed with lysis buffer and split into five fractions.
The elution fractions and beads were collected for western blot. (FIGS. 26C and 26D) Cell lyaste was split into 6 fractions. One of the fractions was incubated with IgG and the rest were incubated with anti-HA antibody plus either buffer or indicated peptides. After 24 hours, the lysate was incubated with Protein A/G beads then the beads was washed followed by wash buffer. 50 uM of peptides was used in all the assays.

Assay [2] has as its target T3, His-SND1 (16-339), SN1/2 domains, wild type (human, UniProt Q7KZF4 16-339).
T3 construct: also called His6-SND1 harboring the SN1/2 domains; not shown: N-terminal His tag (His6, His8 or His) with TEV site, pQlink vector
T3 sequence: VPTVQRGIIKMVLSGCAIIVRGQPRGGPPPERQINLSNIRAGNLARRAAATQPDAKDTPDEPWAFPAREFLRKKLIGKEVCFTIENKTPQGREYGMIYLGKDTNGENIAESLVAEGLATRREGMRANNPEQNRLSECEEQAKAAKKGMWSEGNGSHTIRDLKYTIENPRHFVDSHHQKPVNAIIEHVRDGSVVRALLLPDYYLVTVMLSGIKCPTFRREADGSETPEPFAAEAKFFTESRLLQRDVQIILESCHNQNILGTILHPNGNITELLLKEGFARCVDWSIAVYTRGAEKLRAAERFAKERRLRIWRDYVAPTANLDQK
Put plainly: GST pull-down on glutathione resin, SDS-PAGE, Coomassie blue; normalised percentage of binding, mean±SEM of three experiments. The source says: The proteins bound to GS4B were examined on SDS-PAGE and visualized by Coomassie blue staining. […] The bound proteins were examined as in (FIG. 22A). For both (FIG. 22A) and (FIG. 22B), experiments were repeated three times; representative results are shown. The normalized percentage of binding was averaged from three experiments; mean±SEM was shown below the data. (FIG. 22C) HEK293T cells were transfected with human HA-SND1, WT Myc-MTDH or Myc-MTDH with indicated single point mutation. Lysates were immunoprecipitated with anti-Myc antibody and immunoblotted with the indicated antibodies. (FIG. 22D) HEK293T cells were transfected with human Myc-MTDH, WT HA-SND1 or mutant HA-SND1 with indicated single point mutations or deletions. Lysates were immunoprecipitated with anti-Myc and immunoblotted with the indicated antibodies.
(§1) GST-Mediated Pull-Down Assay: ˜20 μg of GST-MTDH (different truncation forms and site mutants) was bound to 10 μl of glutathione resin via GST tag. The resin was washed with 200 μl assay buffer (25 mM Tris, PH8.0, 150 mM NaCl, 3 mM DTT) three times to remove the excess unbound protein. […] The mixture was washed with 200 μl assay buffer twice before examined by SDS-PAGE, and visualized by Coomassie blue staining. The experiments were repeated 3 times and the ratio of SND1 associated with GST-MTDH was analyzed by ImageJ.
Identification of MTDH and SND1 mutants deficient in binding: To gain insight into how the interface characterized above contributes to MTDH-SND1 interaction, structure-guided mutagenesis studies were performed.

Assay [3] concerns the target T3, His-SND1 (16-339), SN1/2 domains, wild …. In words: GST pull-down of His-SND1 (16-339), SDS-PAGE, Coomassie. The procedure:
as §1

B1: W398D* (other, mouse, UniProt Q80WJ7 1-579, looked up)
single chain: MAARSWQDELAQQAEEGSARLRELLSVGLGFLRTELGLDLGLEPKRYPGWVILVGTGALGLLLLFLLGYGWAAACAGARKKRRSPPRKREEAAPPTPAPDDLAQLKNLRSEEQKKKNRKKLPEKPKPNGRTVEVPEDEVVRNPRSITAKQAPETDKKNEKSKKNKKKSKSDAKAVQNSSRHDGKEVDEGAWETKISHREKRQQRKRDKVLTDSGSLDSTIPGIENIITVTTEQLTTASFPVGSKKNKGDSHLNVQVSNFKSGKGDSTLQVSSRLNENLTVNGGGWSEKSVKLSSQLSEEKWNSVPPASAGKRKTEPSAWTQDTGDTNANGKDWGRNWSDRSIFSGIGSTAEPVSQSTTSDYQWDVSRNQPYIDDEWSGLNGLSSADPSSDWNAPAEEDGNWVDEDRASLLKSQEPISNDQKVSDDDKEKGEGALPTGKSKKKKKKKKKQGEDNSHTQDTEDLEKDTREELPVNTSKARPKQEKACSLKTMSTSDPAEVLIKNSQPVKTLPPAISAEPSITLSKGDSDNSSSQVPPMLQDTDKPKSNAKQNSVPPSQTKSETNWESPKQIKKKKKARRET
notes: point mutant W398D, murine numbering; named in the legend's footnote and on the sheet; also called mouse W398D MTDH (corresponds to human W401D MTDH)
With B1, the binding result in the assay with murine SND1, wild type is on record as “no binding”.

B2: Peptide-401A (PNSDWNAPAEEAGNW) (peptide)
peptide: PNSDWNAPAEEAGNW
notes: also called peptide comprising the single point mutation W401A
For B2, the “effectiveness in blocking the MTDH-SND1 interaction relative to the wild type peptide” value in assay [1] was ~0.5 fold of wild type peptide.

B3: GST-MTDH (364-582) W394A (other)
chain: YQWDVSRNQPYIDDEWSGLNGLSSADPNSDANAPAEEWGNWVDEERASLLKSQEPIPDDQKVSDDDKEKGEGALPTGKSKKKKKKKKKQGEDNSTAQDTEELEKEIREDLPVNTSKTRPKQEKAFSLKTISTSDPAEVLVKNSQPIKTLPPATSTEPSVILSKSDSDKSSSQVPPILQETDKSKSNTKQNSVPPSQTKSETSWESPKQIKKKKKARRET
notes: not shown: N-terminal GST tag with TEV site, pQlink vector
B3: the “% Maximum binding” value in assay [2] turned out to be 1%. The binding result in assay [3] was “no binding”.
